Literature values, collected in paper PMC3521240.

Molecular target: PTX3 (Homo sapiens) (UniProt P26022)
Sequence (P26022 18-381): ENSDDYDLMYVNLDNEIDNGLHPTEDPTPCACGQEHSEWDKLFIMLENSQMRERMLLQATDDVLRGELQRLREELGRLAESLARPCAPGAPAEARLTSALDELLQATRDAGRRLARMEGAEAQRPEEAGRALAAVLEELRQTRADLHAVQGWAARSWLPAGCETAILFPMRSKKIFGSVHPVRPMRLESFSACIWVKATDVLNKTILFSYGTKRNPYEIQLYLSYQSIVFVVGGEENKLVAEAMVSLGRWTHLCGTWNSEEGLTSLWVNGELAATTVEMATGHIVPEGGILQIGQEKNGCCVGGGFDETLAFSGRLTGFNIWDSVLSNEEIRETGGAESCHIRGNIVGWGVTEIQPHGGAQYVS

Chain of AZU1 (P20160 27-248): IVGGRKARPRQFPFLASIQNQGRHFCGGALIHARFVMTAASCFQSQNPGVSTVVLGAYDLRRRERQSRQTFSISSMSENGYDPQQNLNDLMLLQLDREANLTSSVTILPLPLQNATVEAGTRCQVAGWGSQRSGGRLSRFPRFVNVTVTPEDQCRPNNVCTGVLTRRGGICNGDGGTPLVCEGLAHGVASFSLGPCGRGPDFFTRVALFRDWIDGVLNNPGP

For AZU1 (from UniProt P20160), the Kd is listed as 22 nM.
